# “Also recorded” adds a separate entry of the source.
# System: primary mouse hippocampal neurons
# Assay: NMDA induced cell death (excitotoxicity) in cultured primary neurons
# Format: cell-based
# Settings: polypeptide expressed via rAAV infection on DIV3; NMDA 20 μM for 10 min; cell death assessed 24 h later
# Method: Primary mouse hippocampal and cortical neurons were prepared and maintained as known. Briefly, hippocampi or cerebral cortex from P0 C57Bl/6NCrl mice were dissociated and plated at a density of 1.2*105/cm^2 in Growth Medium (GM), consisting of Neurobasal A medium (Gibco™, 10888022), 2% serum free B27™ Supplement (Gibco™, 17504044), 1% rat serum (Biowest, S2150), 0.5 mM L-Glutamine (Sigma, G7513) and 0.5% P-S. Cytosine β-D-arabinofuranoside (AraC; Sigma, C1768; 2.8 μM) was added on DIV3 to prevent the proliferation of glial cells. From DIV8, half of the medium was replaced by GM without Rat serum every 48 h until being used for experiments. 24 h before experiments, GM was replaced with transfection medium (10 mM HEPES, pH 7.4, 114 mM NaCl, 26.1 mM NaHCO3, 5.3 mM KCl, 1 mM MgCl2, 2 mM CaCl2, 30 mM glucose, 1 mM glycine, 0.5 mM C3H3NaO3, and 0.001% phenol red and 10% of phosphate-free Eagle's minimum essential medium, supplemented with 7.5 µg/ml insulin, 7.5 µg/ml transferrin and 7.5 ng/ml sodium selenite (ITS Liquid Media Supplement, Sigma-Aldrich Cat #I3146)). Primary hippocampal neurons were used in live cell imaging, cell death experiments, while cortical neurons were used for mRNA and protein extraction analysis.
# All viral particles were produced and purified as known in the art. All TRPM4 derived peptides (comprising SEQ ID NO:5, or any of SEQ ID NO:46 to SEQ ID NO:56) were cloned into rAAV backbone by PCR. shRNA against mouse TRPM4 were designed by BLOCK-iT™ RNAi Designer from Thermofisher to target: […] (SEQ ID NO:44, shTRPM4-1) and […] (SEQ ID NO:45, shTRPM4-2). Scramble shRNA (shSCR) has been tested and proven to have no known targets in mice. GPI anchor ([…], e.g. used in SEQ ID NO:53) sequences were synthesized by Eurofins Genomics (Ebersberg, Germany). All primers were synthesized and all plasmids were confirmed by sequencing by Eurofins Genomics.
# In order to investigate the role of TRPM4 in NMDA receptor mediated excitotoxicity, the inventors used RNA interference strategies to knock down TRPM4. Cultured primary mouse hippocampus neurons were infected on day 3 in vitro (DIV3) with recombinant adeno-associated viruses (rAAVs) providing for expression of a scramble control (shSCR), shTRPM4-1 (SEQ ID NO:44) or shTRPM4-2 (SEQ ID NO:45). On DIV15-16, neurons were challenged with N-methyl-D-aspartate (NMDA, 20 μM) for 10 min. After NMDA wash out, neurons were kept in the culture medium for another 24 h before analysis. […] Evidently, TRPM4 is thus involved in the process of NMDA receptor mediated excitotoxicity.
# In a next step, the inventors tried to identify regions in the mouse TRPM4 protein potentially involved in NMDA receptor mediated excitotoxicity. For this purpose, polypeptide fragments of mouse TRPM4 protein were generated and their impact on NMDA induced excitotoxicity analysed. To do so, primary neuron cultures were infected with respective rAAVs on DIV3, challenged with NMDA (20 μM) for 10 min on DIV17 and cell death assessed 24 hours later.
# The sequence of SEQ ID NO:5 in TRPM4 is located in vivo just beneath the plasma membrane. […] To test this hypothesis, the inventors created a fusion protein comprising SEQ ID NO:5 and a GPI anchor, SEQ ID NO:57. The sequence of the fusion is given in SEQ ID NO:53. Neurons infected with rAAV and expressing SEQ ID NO:47 (control) or SEQ ID NO:53 were exposed to NMDA (20 μM) for 10 min on DIV15-16, with cell death assessed after 24 h.
# In a next step, the inventors created a mutant of SEQ ID NO:5, in which two adjacent phenylalanine residues where substituted by tyrosine residues (SEQ ID NO: 54). […] TRPM5 is a protein related to but nonetheless distinct to TRPM4. The region in TRPM5 corresponding to SEQ ID NO:5, SEQ ID NO:55, shares only about 60% sequence identity with SEQ ID NO:5. Neurons were infected on DIV3 with rAAVs expressing SEQ ID NO: 5, SEQ ID NO: 54 or SEQ ID NO:55 and exposed to NMDA (20 μM) for 10 min on DIV17, with cell death assessed 24 h later. […]
row,Molecule,protection against NMDA induced cell death (neuroprotective effect)
1,"SEQ ID NO:46: fragment of mouse TRPM4, amino acid residues 1-346",only SEQ ID NO:47 is neuroprotective
2,"SEQ ID NO:48: fragment of mouse TRPM4, amino acid residues 690-1036 (protein, listed as Mus musculus) IWALLLAFFCPPLIYTNLIVFRKSEEEPTQKDLDFDMDSSINGAGPPGTVEPSAKVALERRQRRRPGRALCCGKFSKRWSDFWGAPVTAFLGNVVSYLLFLLLFAHVLLVDFQPTKPSVSELLLYFWAFTLLCEELRQGLGGGWGSLASGGRGPDRAPLRHRLHLYLSDTWNQCDLLALTCFLLGVGCRLTPGLFDLGRTVLCLDFMIFTLRLLHIFTVNKQLGPKIVIVSKMMKDVFFFLFFLCVWLVAYGVATEGILRPQDRSLPSILRRVFYRPYLQIFGQIPQEEMDVALMIPGNCSMERGSWAHPEGPVAGSCVSQYANWLVVLLLIVFLLVANILLLNLLI",only SEQ ID NO:47 is neuroprotective
3,"SEQ ID NO:52: fragment of mouse TRPM4, amino acid residues 536-648 (protein, listed as Mus musculus) SYLGQDHRENDSLLMDWANKQPSTDASFEQAPWSDLLIWALLLNRAQMAIYFWEKGSNSVASALGACLLLRVMARLESEAEEAARRKDLAATFESMSVDLFGECYHNSEERAARLLLRRCPLWG",only SEQ ID NO:5 is neuroprotective
4,"SEQ ID NO:50: fragment of mouse TRPM4, amino acid residues 347-467 (protein, listed as Mus musculus) LQAQVERIMTRKELLTVYSSEDGSEEFETIVLRALVKACGSSEASAYLDELRLAVAWNRVDIAQSELFRGDIQWRSFHLEASLMDALLNDRPEFVRLLISHGLSLGHFLTPVRLAQLYSAVS",only SEQ ID NO:5 is neuroprotective
5,"SEQ ID NO:49: fragment of mouse TRPM4, amino acid residues 1037-1213 (protein, listed as Mus musculus) AMFSYTFSKVHGNSDLYWKAQRYSLIREFHSRPALAPPLIIISHVRLLIKWLRRCRRCRRANLPASPVFEHFRVCLSKEAERKLLTWESVHKENFLLAQARDKRDSDSERLKRTSQKVDTALKQLGQIREYDRRLRGLEREVQHCSRVLTWMAEALSHSALLPPGAPPPPSPTGSKD",only SEQ ID NO:47 is neuroprotective
6,"SEQ ID NO:53: corresponds to SEQ ID NO:47 but comprises additionally a membrane-anchor (GPI) (protein, GPI membrane anchor; Fusion protein of SEQ ID NO: and SEQ ID NO:57) LQAQVERIMTRKELLTVYSSEDGSEEFETIVLRALVKACGSSEASAYLDELRLAVAWNRVDIAQSELFRGDIQWRSFHLEASLMDALLNDRPEFVRLLISHGLSLGHFLTPVRLAQLYSAVSPNSLIRNLLDQASHASSSKSPPVNGTVELRPPNVGQVLRTLLGETCAPRYPARNTRDSYLGQDHRENDSLLMDWANKQPSTDASFEQAPWSDLLIWALLLNRAQMAIYFWEKGSNSVASALGACLLLRVMARLESEAEEAARRKDLAATFESMSVDLFGECYHNSEERAARLLLRRCPLWGEATCLQLAMQADARAFFAQDGVQSLLTQKWWGEMDSTTPLENGGTSLSEKTVLLLVTPFLAAAWSLHP",can increase the ability to protect neurons from excitotoxicity; also recorded: increased the protective effects
7,"SEQ ID NO:47: fragment of mouse TRPM4, amino acid residues 347-689 (protein, listed as Mus musculus) LQAQVERIMTRKELLTVYSSEDGSEEFETIVLRALVKACGSSEASAYLDELRLAVAWNRVDIAQSELFRGDIQWRSFHLEASLMDALLNDRPEFVRLLISHGLSLGHFLTPVRLAQLYSAVSPNSLIRNLLDQASHASSSKSPPVNGTVELRPPNVGQVLRTLLGETCAPRYPARNTRDSYLGQDHRENDSLLMDWANKQPSTDASFEQAPWSDLLIWALLLNRAQMAIYFWEKGSNSVASALGACLLLRVMARLESEAEEAARRKDLAATFESMSVDLFGECYHNSEERAARLLLRRCPLWGEATCLQLAMQADARAFFAQDGVQSLLTQKWWGEMDSTTP",contains a neuroprotective element
8,"SEQ ID NO:51: fragment of mouse TRPM4, amino acid residues 468-548 (protein, listed as Mus musculus) SLGHFLTPVRLAQLYSAVSPNSLIRNLLDQASHASSSKSPPVNGTVELRPPNVGQVLRTLLGETCAPRYPARNTRDSYLGQDHRENDSLLMDWANKQPST",only SEQ ID NO:5 is neuroprotective

# Same assay, conditions: rAAV shRNA infection DIV3; NMDA 20 μM 10 min on DIV15-16; analysis 24 h later
row,Molecule,protection from NMDA induced excitotoxicity by knockdown of TRPM4
1,"shTRPM4-1: shRNA against mouse TRPM4 targeting ggacatcgcccaaagtgaact, expressed from rAAV (guide GGACAUCGCCCAAAGUGAACU; listed as Mus musculus)",significantly protected neurons
2,"shTRPM4-2: shRNA against mouse TRPM4 targeting gcatccagagagggttcattc, expressed from rAAV (guide GCAUCCAGAGAGGGUUCAUUC; listed as Mus musculus)",significantly protected neurons

# Reference: patent US20260242440A1, “NOVEL MEANS TO MODULATE NMDA RECEPTOR-MEDIATED TOXICITY” (FUNDAMENTAL PHARMA GMBH, priority 2018, published 2026)
